B1: recombinant full-length NHERF1 (natural protein)
chain: MSADAAAGAPLPRLCCLEKGPNGYGFHLHGEKGKLGQYIRLVEPGSPAEKAGLLAGDRLVEVNGENVEKETHQQVVSRIRAALNAVRLLVVDPETDEQLQKLGVQVREELLRAQEAPGQAEPPAAAEVQGAGNENEPREADKSHPEQRELRPRLCTMKKGPSGYGFNLHSDKSKPGQFIRSVDPDSPAEASGLRAQDRIVEVNGVCMEGKQHGDVVSAIRAGGDETKLLVVDRETDEFFKKCRVIPSQEHLNGPLPVPFTNGEIQKENSREALAEAALESPRPALVRSASSDTSEELNSQDSPPKQDSTAPSSTSSSDPILDFNISLAMAKERAHQKRSSKRAPQMDWSKKNELFSNL
B2: recombinant N1P1-GAGA (natural protein)
chain: MSADAAAGAPLPRLCCLEKGPNGAGAHLHGEKGKLGQYIRLVEPGSPAEKAGLLAGDRLVEVNGENVEKETHQQVVSRIRAALNAVRLLVVDPETDEQLQKLGVQVREELLRAQEAPGQAEPPAAAEVQGAGNENEPREADKSHPEQRELRPRLCTMKKGPSGYGFNLHSDKSKPGQFIRSVDPDSPAEASGLRAQDRIVEVNGVCMEGKQHGDVVSAIRAGGDETKLLVVDRETDEFFKKCRVIPSQEHLNGPLPVPFTNGEIQKENSREALAEAALESPRPALVRSASSDTSEELNSQDSPPKQDSTAPSSTSSSDPILDFNISLAMAKERAHQKRSSKRAPQMDWSKKNELFSNL
B3: recombinant N1P2-GAGA (natural protein)
chain: MSADAAAGAPLPRLCCLEKGPNGYGFHLHGEKGKLGQYIRLVEPGSPAEKAGLLAGDRLVEVNGENVEKETHQQVVSRIRAALNAVRLLVVDPETDEQLQKLGVQVREELLRAQEAPGQAEPPAAAEVQGAGNENEPREADKSHPEQRELRPRLCTMKKGPSGAGANLHSDKSKPGQFIRSVDPDSPAEASGLRAQDRIVEVNGVCMEGKQHGDVVSAIRAGGDETKLLVVDRETDEFFKKCRVIPSQEHLNGPLPVPFTNGEIQKENSREALAEAALESPRPALVRSASSDTSEELNSQDSPPKQDSTAPSSTSSSDPILDFNISLAMAKERAHQKRSSKRAPQMDWSKKNELFSNL
B4: pSer162-PDZ2 (133–300 aa) (domain or fragment)
chain: NENEPREADKSHPEQRELRPRLCTMKKGPSGYGFNLHSDKSKPGQFIRSVDPDSPAEASGLRAQDRIVEVNGVCMEGKQHGDVVSAIRAGGDETKLLVVDRETDEFFKKCRVIPSQEHLNGPLPVPFTNGEIQKENSREALAEAALESPRPALVRSASSDTSEELNSQ
modifications: phosphoserine at 162
B5: S162A-PDZ2 (133–300 aa) (domain or fragment)
chain: NENEPREADKSHPEQRELRPRLCTMKKGPAGYGFNLHSDKSKPGQFIRSVDPDSPAEASGLRAQDRIVEVNGVCMEGKQHGDVVSAIRAGGDETKLLVVDRETDEFFKKCRVIPSQEHLNGPLPVPFTNGEIQKENSREALAEAALESPRPALVRSASSDTSEELNSQ
B6: WT PDZ2 domain (133–300 aa) of NHERF1 (domain or fragment)
chain: NENEPREADKSHPEQRELRPRLCTMKKGPSGYGFNLHSDKSKPGQFIRSVDPDSPAEASGLRAQDRIVEVNGVCMEGKQHGDVVSAIRAGGDETKLLVVDRETDEFFKKCRVIPSQEHLNGPLPVPFTNGEIQKENSREALAEAALESPRPALVRSASSDTSEELNSQ
B7: NHERF1 PDZ1 domain (1-140 aa), isolated (domain or fragment)
chain: MSADAAAGAPLPRLCCLEKGPNGYGFHLHGEKGKLGQYIRLVEPGSPAEKAGLLAGDRLVEVNGENVEKETHQQVVSRIRAALNAVRLLVVDPETDEQLQKLGVQVREELLRAQEAPGQAEPPAAAEVQGAGNENEPREA

The target in one test is FITC-labeled human GRK6A C-terminal 22 amino acid peptide, GRK6Act-22 (human). In words: fluorescence polarisation; fluorescence anisotropy, direct saturation binding in solution; recombinant protein titrated to fixed FITC-GRK6Act-22 (0.4–1.0 μM); PBS pH 7.4, 0.1% BSA, 1 mM DTT, 23 °C; quadratic fit.
A word on the Kd: it is the concentration at which binding is half-saturated. In the case of B1, the Kd turned out to be 5.3 µM.

As for B2, the Kd was greater than 100 µM.

In the case of B3, the Kd worked out at 3.6 µM.

For B4, the Kd was determined as 26.1 µM.

Regarding B5, the equilibrium dissociation constant (Kd) was 43.4 µM.

For the molecule B6, the Kd came to 51.3 µM.

The next test has the same target. In words: fluorescence polarisation; fluorescence anisotropy saturation binding in solution; increasing amounts of recombinant protein added to a fixed concentration of FITC-labeled GRK6Act-22 (0.4-1.0 uM); PBS pH 7.4, 0.1% BSA, 1 mM DTT; 23 °C; 96-well format; quadratic fit. (In fluorescence polarisation assays a small probe gives low polarisation when free and higher when bound to something large.)
In the case of B7, the Kd worked out at 6.6 µM.

The record behind these values is publication PMC8042174.
